“Also recorded” adds a separate entry of the source.
Tests used:
non-NMDA receptor = test: inhibition of minimal-stimulation single fiber EPSC amplitude by γ-DGG in layer 2/3 barrel cortex pyramidal neurons (brain slices); type: cell-based, mouse; conditions: γ-DGG 300 μM; Ube3a (2×) transgenic vs wild-type neurons; P=0.0127, n=7-8
Protocol: The vesicle glutamate content was estimated by the relative inhibition of mean single fiber EPSC amplitude by the fast off-rate, non-NMDA receptor blocker γ-DGG (300 μM). The higher the percentage inhibition by γ-DGG, the lower the concentration of synaptic glutamate. Detailed protocols are available in the Extended Experimental Procedures.
The vesicle glutamate content was estimated by the relative inhibition of mean single fiber EPSC amplitude by the fast off-rate, non-NMDA receptor blocker γ-DGG (300 μM). The higher the percentage inhibition by γ-DGG, the lower the concentration of synaptic glutamate (see ref. 21). To selectively stimulate a single fiber in layer 2/3 of the barrel cortex, minimal stimuli were delivered through ACSF-filled bipolar glass electrodes pulled from 2.0 mm OD dual barrel theta capillary glass (Warner Instruments). The tip of the stimulating electrodes is about 2 μm. To establish a minimal stimulation, we first sought for the highest stimulus that gave all failures. […] To acquire a reasonable number of EPSCs from 40-100 trials in both baseline and γ-DGG conditions at 0.3 Hz, we adjusted the stimulation intensity to give about 10% failures (WT: 9.7±2.4%, n=8; 1×: 9.7±3.4%, n=8; 2×: 11.6±4.6%, […]; F(2, 21)=0.106, P=0.90). Under this failure rate, the calculated quantal content was about 2. […]

recombinant Arc [1] = test system: recombinant Arc
recombinant Arc [2] = test: in vitro target protein degradation (ubiquitination) assay with immunoprecipitated Ube3a-FLAG; type: biochemical; conditions: FLAG antibody immunoprecipitate from Tg cortical lysate; control Wt 1.26±0.04; P=0.01; n=3 independent in vitro assays
Protocol: Ube3a expression was confirmed by western blot of cortical lysates using both anti-FLAG M2 antibody (Sigma) and anti-Ube3a (BD Biosciences). The ubiquitin ligase activity of Ube3a was assayed by an in vitro target protein degradation assay. Ube3a was immunoprecipitated using anti-FLAG M2 antibodies and protein G magnetic beads (NEB) and eluted in non-denaturing conditions using a 3× FLAG peptide (Sigma). 1 μg of recombinant ARC (BD Biosciences) was added to 10 μl of immunoprecipitated Ube3a in the presence of 50 ng E1 and 100 ng UbcH7 enzymes and 4 μg HA-ubiquitin (Boston Bioproducts) as in (19). Western blots were probed with anti-ARC (Santa Cruz) and quantified using ImageJ (NIH). Detailed protocols are available in the Extended Experimental Procedures.
Cortical lysates were prepared in PBS with 1% TritonX-100 and protease inhibitors, incubated with 4 μg of anti-FLAG antibodies overnight, and with 50 μl of protein G magnetic beads (NEB) for immunoprecipitation (IP). Beads were washed 5× with PBS and Ube3a-FLAG was eluted with 3× FLAG peptide (Sigma) in 100 μl PBS, and IP success was confirmed by western blot. […]

N[C@H](CCC(=O)NCC(=O)O)C(=O)O [γDGG, γ-D-glutamylglycine]
Reduction of EPSC amplitude by γ-DGG (non-NMDA receptor): reduce EPSC amplitude to a greater extent in Ube3a (2×) transgenic than in wild-type neurons; also recorded: increased γDGG inhibition in Ube3a transgenic mice

FLAG-tagged full length Ube3a (transgenic mouse Ube3a with C-terminal 3×FLAG tag, immunoprecipitated from cortical lysates of transgenic mice)
in vitro target protein degradation assay (Arc on western blot probed with anti-ARC, quantified with ImageJ) (recombinant Arc [1]): mean±SEM Wt: 1.26±0.04 vs. Tg: 0.58±0.16; P=0.01 by t test; n=3 independent in vitro assays

B1: transgenic Ube3a: full-length FLAG-tagged transgenic Ube3a ubiquitin ligase immunoprecipitated from transgenic mouse cortical lysate (protein, UniProt O08759 1-870, looked up)
chain: MATACKRSPGESQSEDIEASRMKRAAAKHLIERYYHQLTEGCGNEACTNEFCASCPTFLRMDNNAAAIKALELYKINAKLCDPHPSKKGASSAYLENSKGASNNSEIKMNKKEGKDFKDVIYLTEEKVYEIYEFCRESEDYSPLIRVIGRIFSSAEALVLSFRKVKQHTKEELKSLQEKDEDKDEDEKEKAACSAAAMEEDSEASSSRMGDSSQGDNNVQKLGPDDVTVDIDAIRRVYSSLLANEKLETAFLNALVYLSPNVECDLTYHNVYTRDPNYLNLFIIVMENSNLHSPEYLEMALPLFCKAMCKLPLEAQGKLIRLWSKYSADQIRRMMETFQQLITYKVISNEFNSRNLVNDDDAIVAASKCLKMVYYANVVGGDVDTNHNEEDDEEPIPESSELTLQELLGDERRNKKGPRVDPLETELGVKTLDCRKPLISFEEFINEPLNDVLEMDKDYTFFKVETENKFSFMTCPFILNAVTKNLGLYYDNRIRMYSERRITVLYSLVQGQQLNPYLRLKVRRDHIIDDALVRLEMIAMENPADLKKQLYVEFEGEQGVDEGGVSKEFFQLVVEEIFNPDIGMFTYDEATKLFWFNPSSFETEGQFTLIGIVLGLAIYNNCILDVHFPMVVYRKLMGKKGTFRDLGDSHPVLYQSLKDLLEYEGSVEDDMMITFQISQTDLFGNPMMYDLKENGDKIPITNENRKEFVNLYSDYILNKSVEKQFKAFRRGFHMVTNESPLKYLFRPEEIELLICGSRNLDFQALEETTEYDGGYTRESVVIREFWEIVHSFTDEQKRLFLQFTTGTDRAPVGGLGKLKMIIAKNGPDTERLPTSHTCFNVLLLPEYSSKEKLKERLLKAITYAKGFGML
modifications: full-length FLAG tag
notes: full-length FLAG-tagged transgenic Ube3a ubiquitin ligase immunoprecipitated from transgenic mouse cortical lysate
Recombinant Arc level after in vitro degradation (western blot, mean±SEM) (recombinant Arc [2]): 0.58±0.16

Source: patent US20140298494A1, “ANIMAL MODEL OF AUTISM” (Beth Israel Deaconess Medical Center, Inc., priority 2011, published 2014)
